Measurements as given in the supplement of paper PMC10567573.
± gives the standard deviation.

Experiment: protein stability index of a GFP-peptide fusion (GPS, HEK-293T) (PSI 1-6); higher = more stable
[1] = treatment: DMSO, c terminus: a fixed tail appended
[2] = treatment: MLN4924 1 uM, 8 h, c terminus: a fixed tail appended
[3] = treatment: DMSO, c terminus: native
[4] = treatment: MLN4924 1 uM, 8 h, c terminus: native
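Further: 24-mer peptide tiles fused after GFP, lentivirally expressed, FACS-sorted into six equal bins by GFP/DsRed ratio, decoded by Illumina sequencing, PSI is the read-weighted mean bin number.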

Sequence	protein stability index [1]	protein stability index [2]	protein stability index [3]	protein stability index [4]
EEEKILRVKLEEDPDGEEGSSIPW [ZNF24]	5.56 ± 0.13	5.58 ± 0.26		
FSQKSCLVAHQRYHTGKTPFVCPE [ZNF649]	2.58 ± 0.13	2.6 ± 0.23		
GLANSSRVRGRVGTIRPVRCPSSS [C22orf15]	4.12 ± 0.14	4.23 ± 0.21		
VGEFPIISPGRVYEYTSCTTFSTT [FBXO3]	2.3 ± 0.22	2.33 ± 0.32		
EQIGHILVSWLPRLNAYRGYCSNQ [NET1]	2.67 ± 0.51	2.65 ± 0.18		
YNVYSTFQSHEPEFDYLKSLEIEE [PPP2R2B]	3.86 ± 0.2	3.92 ± 0.26		
KGAVNLHMEEEVEDFLLKKPIVPT [CDC25A]	4.14 ± 0.31	4.13 ± 0.2		
ESLPRSEIDEKVTDLVQFLLFKYQ [MAGEA10]	2.35 ± 0.069	2.83 ± 0.5		
IIYPRQQLLTLRELEMIGFIENNV [TRIP13]	2.6 ± 0.37	2.26 ± 0.22		
SEAKSHSSADDASAWSNIQEAPLQ [FAN1]	5.29 ± 0.31	5.04 ± 0.46		
LDLKGNNLRAAGAEALGKLLQQNK [LRRC45]	4.39 ± 0.19	4.27 ± 0.097		
LAGLSVGRSSLTACSLPLCACLLG [PXN]	2.33 ± 0.39	2.33 ± 0.22		
EISLEDLIERERSALGPNVTKITL [ZC3H15]	2.77 ± 0.3	2.96 ± 0.48		
FCNISLFEDLPLQEPQSPQKLNPG [PLAGL1]	3 ± 0.2	3.21 ± 0.25		
AEERRRQNLQEEKERKLECLPPEP [FAF2]	5.71 ± 0.18	5.51 ± 0.42		
QYLAERYKVNTPMLQSFINYCLLF [SLC35F2]	2.58 ± 0.6	2.64 ± 0.53		
IEAEGATAPLTELLHSRNEGVATY [CTNNB1]	4.32 ± 0.27	4.31 ± 0.25		
TAKDNGEAEDQEEKEDAEKENIEK [SRPK2]	5.58 ± 0.12	5.67 ± 0.25		
TSNGWGVTDCKHTEDVGVVCSDKR [LOXL2]	4.57 ± 0.092	4.46 ± 0.41		
SMLPPVNFSIVPYEKKFDTFIPLE [SPATS1]	2.6 ± 0.26	2.49 ± 0.1		
AREYYSEADASHCIQQILEAVLHC [CAMK2A]	2.48 ± 0.26	2.55 ± 0.24		
QPRDEEEAELELLRQFDLAWQYGP [POLD4]	4.87 ± 0.34	4.54 ± 0.27		
SKTVTSTMLGVFREDPKTREEFLT [GCH1]	4.12 ± 0.1	4.11 ± 0.24		

Sequence	protein stability index [1]	protein stability index [2]	protein stability index [3]	protein stability index [4]
PKTNEDFEFLYNALEFWRQEELTR [IQUB]	2.63 ± 0.31	2.23 ± 0.43		
RSSVSRVFDCLKDGMRNKETLEGR [MED27]	4.27 ± 0.34	4.38 ± 0.47		
SKIGFGILLSKEPDGVWAYNRGEH [SMAD6]	2.43 ± 0.25	2.71 ± 0.15		
CRVFWWLGDRDRSRAALVCRKWNQ [FBXO39]	2.46 ± 0.87	2.06 ± 0.41		
EVTDTGDPIVRPLWWIAPGDETAH [MYORG]	4.25 ± 0.28	4.38 ± 0.35		
TRKLSPGKKRCKDIKRLLVNFMYL [SMG5]	2.53 ± 0.45	2.62 ± 0.48		
IPAFCELPLDDQVALLRAHAGEHL [HNF4A]	2.88 ± 0.26	3.22 ± 0.33		
LESSDLPVALLLAQHKDRSTQLEM [MNAT1]	3.47 ± 0.23	3.53 ± 0.3		
NKTKPIWTRNPDDITQEEYGEFYK [HSP90AB1]	4.36 ± 0.42	4.49 ± 0.44		
CLTCGKSFRQGMHLTRHQRTHTGE [ZNF263]	4.03 ± 0.23	3.98 ± 0.46		
GPGEPDVRDGFSATFEKILESELL [PSD2]	3.91 ± 0.25	4.03 ± 0.34		
NASTLRTINIKCHVHDPHGQVIWG [FBXO39]	2.17 ± 0.18	2.21 ± 0.21		
RSHSREPRAERKCPRIAPADSGRY [ELOA2]	4.093 ± 0.032	4.25 ± 0.47		
SIIILLELAILGGLVYYKFFRSH [VTI1B]			2.78 ± 0.27	2.63 ± 0.45
WLLTHLLWFANAHLLSWFSPTIIF [DHCR7]	3.36 ± 0.17	2.96 ± 0.3		
CMYRHALPPGFVLKKDKKKEEKED [ZC3H15]	4.58 ± 0.21	4.67 ± 0.15		
HGDPIPKVEFTEEEIKTWGTVFQE [TPH1]	4.87 ± 0.2	4.86 ± 0.16		
DFLMCYSVAEGYYSHRETVNGSWY [CASP6]	2.88 ± 0.8	2.86 ± 0.79		
KSLEGGGTAFDAETDSEMNSQESR [SMG5]	5.5 ± 0.15	5.58 ± 0.15		
KAREKDGKGRTASPINSPARGTPS [FSD1]	4.92 ± 0.11	5.19 ± 0.27		
VYTGKLLLNLVDHTEVVRDLTFAP [WSB1]	2.2 ± 0.28	2.36 ± 0.35		
HCVTSDPATSPLVLAIPRRLRVEL [TRIM35]	2.3 ± 0.37	2.13 ± 0.44		
FLVLQSLLERQVEMTPEKFSVLME [FANCE]	2.13 ± 0.39	2.11 ± 0.3		

Sequence	protein stability index [1]	protein stability index [2]	protein stability index [3]	protein stability index [4]
SFRENWQRAWVRALNEQACRNGSS [C2CD2L]	2.7 ± 0.24	2.45 ± 0.49		
EETVTQDCLQLIADSETPTIQKGS [TNFSF13B]	5.53 ± 0.36	5.42 ± 0.14		
KILYDDGKMVEEVDGRATQKLIVN [PTPRD]	3.92 ± 0.34	3.605 ± 0.004		
AIVFTDGRAQDDVSEWASKAKANG [MATN2]	3.92 ± 0.29	4.26 ± 0.34		
GSCQLGGGRGVSTCSTRFVSGGSA [KRT13]	3.32 ± 0.47	3.87 ± 0.21		
SKYCYGPQGSRSPYIPPHAALCLE [FKBP8]	2.46 ± 0.54	2.74 ± 0.3		
YTSAGTYGLDSVKKKCLEWLLNNL [GMCL1]	2.17 ± 0.19	2.16 ± 0.26		
AELAGVIKRLWKDSGVQACFNRSR [GNAI1]	2.62 ± 0.23	2.42 ± 0.72		
ESKEPIEEEPTGAGLNKDKETEER [SDE2]	5.57 ± 0.34	5.7 ± 0.13		
EVSADDETPNPPQSAQIACSSPSV [MAGEA10]	5.57 ± 0.28	5.42 ± 0.21		
NQAPSGPVASSGEFFGSASQPAVE [CLINT1]	5.16 ± 0.24	5.24 ± 0.43		
DLNIQLLKDGYRLDEIPDDEDLDL [FAM219A]	5.17 ± 0.16	5.16 ± 0.079		
MAKTLVFSKVKTSLGLDHCHSFIS [ACSBG2]	2.18 ± 0.58	1.82 ± 0.52		
TGASFQKAQQEFAAGVFSNPAVRT [SCAMP3]	3.73 ± 0.16	3.79 ± 0.25		
YTFTDTFTEKLWPLFYPGIRAGRK [TRIM39]	2.69 ± 0.84	2.46 ± 0.5		
DSARADDARQLFVLAGAAEEGFMT [GNAI1]	4.21 ± 0.22	4.43 ± 0.077		
AIMLLPDENREVLQTLLYFLSDVT [DLC1]	2.12 ± 0.23	2.19 ± 0.13		
DLTSSSSDELSWIIELLEKDGMAF [ELF3]	2.86 ± 0.34	3.19 ± 0.29		
TPPTTTAEIATASASASTTTTVTA [SNAP91]	5.39 ± 0.15	5.3 ± 0.13		
ESEDCKLPCNPCATTNASGNSCGP [KRT34]	5.21 ± 0.12	5.25 ± 0.17		
GAYIGEGRVEVLKNGEWGTVCDDK [LOXL2]	4.99 ± 0.36			
TAGEMVFVYENAKEGARNIRTSER [BTBD10]	3.94 ± 0.21	3.98 ± 0.14		
GPLAETTEDFWRMLWEHNSTIVVM [PTPRD]	2.48 ± 0.42	2.4 ± 0.33		

Sequence	protein stability index [1]	protein stability index [2]	protein stability index [3]	protein stability index [4]
HEVREFKQLIYRVRRTDDTPVVLV [RIT1]	2.2 ± 0.29	2.24 ± 0.16		
AKGDNVYEFHLEFLDLVKPEPVYK [HACD3]	2.41 ± 0.09	2.54 ± 0.49		
EVKRAFFSKSKELHPDRDPGNPSL [DNAJC4]	3.89 ± 0.12	4.03 ± 0.37		
QYLALPERAELAASLGLTQTQVKI [DLX1]	2.95 ± 0.33	3.03 ± 0.22		
SCHGYTLPGACNIPANVSNCNWFC [KRT33B]	2.53 ± 0.52	2.42 ± 0.5		
ISSIGQVQSYMEHYCNSSTDRRVL [SPACA9]	3.23 ± 0.33	3.25 ± 0.36		
LWFANAHLLSWFSPTIIFDNWIPL [DHCR7]	2.92 ± 0.33	2.93 ± 0.16		
QQKEEEEEMAVVPQGLFRGGKSGE [CHGA]	5.52 ± 0.28	5.63 ± 0.12		
EMETLETSTKTDSEEGSWAQTLAY [PPFIA4]	5.04 ± 0.15	4.62 ± 0.069		
DPHTKKALEAHCRADELASQDGR [PPP2R5C]			5.16 ± 0.29	5.3 ± 0.12
QALEQFAAAAAHSTPVRREVTDKE [EPB41L3]	5.02 ± 0.22	4.89 ± 0.41		
AMRAGVLADDHLIEVNGENVEDAS [PDZK1]	5.41 ± 0.23	5.3 ± 0.11		
GRPPDPADWAVMDVVNYFRTVGFE [SAMD13]	2.57 ± 0.25	2.78 ± 0.3		
SQDERLDVLLTLKHTVKEHECKLT [IQUB]	3.41 ± 0.3	3.41 ± 0.16		
ELFRLRGIKAQVALRLAELARRRR [NOP53]	2.36 ± 0.23	2.55 ± 0.22		
FAALRASLVAPLLLELAGEVTDTG [MYORG]	2.13 ± 0.39	2.36 ± 0.4		
EAKEAKGSGYEKLGPSRDPDPLNI [RTP4]	4.9 ± 0.21	4.91 ± 0.18		
HLTVHKRIHTGERPYMCKECGKAF [ZNF8]	2.73 ± 0.28	3.27 ± 0.38		
NSPLHIAALNNHPDIMNLLIKSGA [FEM1C]	2.54 ± 0.1	2.78 ± 0.12		
LRATVERMGLMKANHVFFLLYLLH [FADS1]	2.35 ± 0.37	2 ± 0.18		
